Data set [1] deals with JASPer (untagged, in JJ-complex);JIL-1 (Drosophila melanogaster;Drosophila melanogaster) (UniProt Q9V3I5). Nature of the data set: nucleosome library pull-down with sequencing. The following applies: H3K36me3; DNA EMSA: 50 mM HEPES pH 7.6, 50 mM NaCl, 10% glycerol, 2 mM MgCl2, 10% BSA, RT 10 min; RNA EMSA: 25 mM HEPES pH 7.6, 100 mM KCl, 3 mM MgCl2, 1 mM DTT, 5% …; scale: fold enrichment over unmodified nucleosome.

In data set [2] the target is T1, JASPer (Drosophila melanogaster) (UniProt Q9VAA9).
T1 sequence: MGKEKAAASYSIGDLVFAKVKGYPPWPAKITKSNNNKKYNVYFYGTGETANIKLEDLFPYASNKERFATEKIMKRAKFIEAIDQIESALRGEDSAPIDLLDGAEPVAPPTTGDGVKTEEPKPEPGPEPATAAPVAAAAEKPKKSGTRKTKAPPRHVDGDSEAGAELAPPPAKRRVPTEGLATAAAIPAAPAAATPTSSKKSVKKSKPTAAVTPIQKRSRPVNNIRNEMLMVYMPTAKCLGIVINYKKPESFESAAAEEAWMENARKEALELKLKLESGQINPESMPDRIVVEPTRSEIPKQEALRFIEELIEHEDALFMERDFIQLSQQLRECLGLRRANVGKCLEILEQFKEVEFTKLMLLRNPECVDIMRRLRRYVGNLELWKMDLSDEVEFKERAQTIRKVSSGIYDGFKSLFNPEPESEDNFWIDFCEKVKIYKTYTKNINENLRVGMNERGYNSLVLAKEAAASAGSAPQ
The data set is described as follows: nucleosome library pull-down with sequencing. Details: dose or concentration left out as unconfirmed. The following applies: H3K36me3; scale: fold enrichment over unmodified nucleosome.

Data set [3] deals with JASPer-JIL-1 (JJ)-complex (FLAG-JIL-1 and untagged JASPer) (D. melanogaster) (UniProt Q9V3I5). Nature of the data set: pull-down; 1.5 pmol FLAG-tagged JASPer or JJ-complex pre-coupled to FLAG-M2 beads, incubated with 1.38 pmol library of 115 DNA-barcoded nucleosome types (12 fmol each) in 200 µL 20 mM Tris/Cl pH 7.5, 50 mM NaCl, 5 mM EDTA, 0.1% TWEEN 20, 4 h at 4 °C; read out by sequencing of the barcodes, relative to the unmodified nucleosome set to 1.
Sequence of JASPer-JIL-1 (JJ)-complex (FLAG-JIL-1 and untagged JASPer) (D. melanogaster) (Q9V3I5 whole entry, one chain of several): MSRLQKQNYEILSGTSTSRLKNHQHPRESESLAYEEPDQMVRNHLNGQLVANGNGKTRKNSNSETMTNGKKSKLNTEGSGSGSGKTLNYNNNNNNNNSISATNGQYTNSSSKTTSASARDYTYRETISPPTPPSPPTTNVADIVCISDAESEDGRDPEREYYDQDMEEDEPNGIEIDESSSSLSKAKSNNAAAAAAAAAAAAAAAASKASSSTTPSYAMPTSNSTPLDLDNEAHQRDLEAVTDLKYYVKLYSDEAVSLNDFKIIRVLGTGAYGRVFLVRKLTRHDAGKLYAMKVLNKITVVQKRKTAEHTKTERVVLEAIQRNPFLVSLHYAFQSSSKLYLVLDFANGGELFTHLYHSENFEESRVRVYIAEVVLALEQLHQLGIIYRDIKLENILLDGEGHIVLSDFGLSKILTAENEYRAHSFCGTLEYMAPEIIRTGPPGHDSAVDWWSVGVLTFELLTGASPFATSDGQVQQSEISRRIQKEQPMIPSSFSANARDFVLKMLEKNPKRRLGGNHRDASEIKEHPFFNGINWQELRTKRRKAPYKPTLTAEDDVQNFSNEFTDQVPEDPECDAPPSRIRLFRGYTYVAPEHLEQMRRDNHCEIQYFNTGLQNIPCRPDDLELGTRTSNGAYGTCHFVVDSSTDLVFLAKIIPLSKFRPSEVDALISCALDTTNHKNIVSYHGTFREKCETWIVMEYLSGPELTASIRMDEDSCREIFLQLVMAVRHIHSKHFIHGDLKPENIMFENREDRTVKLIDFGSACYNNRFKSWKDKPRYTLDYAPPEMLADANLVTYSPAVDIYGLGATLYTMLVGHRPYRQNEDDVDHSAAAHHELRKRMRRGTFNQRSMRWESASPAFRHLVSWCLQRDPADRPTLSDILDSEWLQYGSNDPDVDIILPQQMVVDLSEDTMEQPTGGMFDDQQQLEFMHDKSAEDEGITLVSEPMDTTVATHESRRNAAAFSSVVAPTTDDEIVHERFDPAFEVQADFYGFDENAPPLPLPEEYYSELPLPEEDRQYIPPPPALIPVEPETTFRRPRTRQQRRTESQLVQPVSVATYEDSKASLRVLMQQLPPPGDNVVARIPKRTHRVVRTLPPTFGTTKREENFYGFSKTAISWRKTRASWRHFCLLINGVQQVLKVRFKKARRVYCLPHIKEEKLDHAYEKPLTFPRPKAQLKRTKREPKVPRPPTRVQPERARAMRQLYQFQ

The target of data set [4] is JASPer-FLAG (D. melanogaster). The description is as above.

Sequence of JASPer (untagged, in JJ-complex);JIL-1 (Drosophila melanogaster;Drosophila melanogaster) (Q9V3I5 whole entry, looked up, one chain of several): as the sequence (Q9V3I5 whole entry, one chain of several) above

Consider “H3K36me3 mononucleosome (barcoded library)”, for which the binding signal came to 70 in data set [1] and 40 in data set [2].
“nucleosome bearing the single H3K36me3 modification (complex)” displayed a fold enrichment over the unmodified nucleosome in data set [3] of 70 fold. The same substance returned a fold enrichment relative to the unmodified nucleosome in data set [4] of 40 fold.

(Values after paper PMC6877644.)
